From patent US20110263014A1, “Cleavage of Nanog by Caspases Mediates the Differentiation of Embryonic Stem Cells” (BAYLOR COLLEGE OF MEDICINE, priority 2008, published 2011)

Columns and labels:
mouse ES cells = assay: colony formation at clonal density, alkaline phosphatase staining; format: cell-based; details: transfected mouse ES cells, 5000 cells/cm^2, with or without LIF, 3 days
caspase-9 = biological target: T1, caspase-9 (Homo sapiens, UniProt P55211); assay: cleavage of immunoprecipitated mNanog by recombinant caspase-9; format: biochemical; details: protein immunoprecipitated from ES cells
T1 sequence (P55211 1-416): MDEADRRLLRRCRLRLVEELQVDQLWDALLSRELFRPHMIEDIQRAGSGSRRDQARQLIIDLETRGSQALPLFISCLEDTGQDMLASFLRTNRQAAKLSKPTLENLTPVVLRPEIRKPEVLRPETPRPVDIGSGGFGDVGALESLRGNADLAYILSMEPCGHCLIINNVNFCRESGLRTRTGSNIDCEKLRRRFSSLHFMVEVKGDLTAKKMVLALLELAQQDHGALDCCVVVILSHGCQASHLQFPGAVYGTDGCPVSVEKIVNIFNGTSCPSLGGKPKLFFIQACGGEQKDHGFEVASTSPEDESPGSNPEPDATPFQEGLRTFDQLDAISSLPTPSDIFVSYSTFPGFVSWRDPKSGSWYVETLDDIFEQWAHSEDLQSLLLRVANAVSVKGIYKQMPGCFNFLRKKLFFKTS

- cleavage by caspase-9 (caspase-9): greatly diminished cleavage
B1: D67G mNanog: caspase cleavage-resistant mutant of mouse Nanog, mutation at position 67 (protein)
chain: MSVGLPGPHSLPSSEEASNSGNASSMPAVFHPENYSCLQGSATEMLCTEAASPRPSSEDLPLQGSPGSSTSPKQKLSSPEADKGPEEEENKVLARKQKMRTVFSQAQLCALKDRFQKQKYLSLQQMQELSSILNLSYKQVKTWFQNQRMKCKRWQKNQWLKTSNGLIQKGSAPVEYPSIHCSYPQGYLVNASGSLSMWGSQTWTNPTWSSQTWTNPTWNNQTWTNPTWSSQAWTAQSWNGQPWNAAPLHNFGEDFLQPYVQLQQNFSASDLEVNLEATRESHAHFSTPQALELFLNYSVTPPGEI
- number of undifferentiated (AP-positive) colonies (mouse ES cells): substantially increased
